From patent publication US20190367619A1 (ARGENX, published 2019)
Numbering of substitutions follows the chain as printed.

T1: recombinant human galectin-10, TEV-cleaved (human, UniProt Q05315 1-142)
T1 sequence: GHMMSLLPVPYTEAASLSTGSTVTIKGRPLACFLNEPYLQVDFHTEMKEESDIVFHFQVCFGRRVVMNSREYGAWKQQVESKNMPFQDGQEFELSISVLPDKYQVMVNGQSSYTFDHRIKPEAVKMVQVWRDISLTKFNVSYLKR

T2: human galectin-10-His (human)
T2 construct: The last M of the tag may be Met1 of galectin-10; also called humanGal10-His; hGal10
T2 chain: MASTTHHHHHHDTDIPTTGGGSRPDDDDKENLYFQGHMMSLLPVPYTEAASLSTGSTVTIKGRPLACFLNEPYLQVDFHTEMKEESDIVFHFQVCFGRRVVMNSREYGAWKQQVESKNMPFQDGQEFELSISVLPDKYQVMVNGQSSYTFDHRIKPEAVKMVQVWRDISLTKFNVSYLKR

T3: human galectin-10-His (recombinant human galectin-10 with TEV-cleavable N-terminal His-tag) (human)
T3 construct: SEC-MALLS: dimer in solution; also called Gal10-His; humanGal10-His
T3 chain: T2 chain

T4: TEV-cleaved wild-type recombinant human galectin-10 (soluble, in Fab complexes, or as recombinant galectin-10 … (human, UniProt Q05315 1-142))
T4 sequence: T1 sequence

B1: 10A06 Fab (Fab, V domains shown)
VH: QVQLVESGGGLVQPGGSLRLSCAASGFTFGNYDMSWVRQAPGKGPEWVSDINSGGGSTYYADSVKGRFTISRDNAKNSLLLQMNSLKPEDTAVYYCATGYTGYYYWGQGTQVTVSS
VL: QTVVTQEPSLSVSPGGTVTLTCGLSSGSVTSSNYPAWYQQTPGQAPRALIYSINSRHSGVPDRFSGSISGNKAALTITGAQAEDEADYYCTLYMGTGSNNVVFGGGTHLTVL
notes: Fab with human CH1 (including part of the hinge region) and human lambda constant domain; also called 10A06 hFab
B2: 10B02 Fab (Fab, V domains shown)
VH: QVQLVESGGGLVQPGGSLRVSCAASGFTFSYHYMNWVRQAPGKGLEWVSGISAGGGRTYYADSVKGRFTISRDNAKNTLYLQMNSLNAEDTALYYCARVHGITNDYWGQGTQVTVSS
VL: QSALTQPPSVSGSPGKTVTISCAGTSSDVGYGNYVSWYQQLPGMAPKLLIYEVNKRASGITDRFSGSKSGNTAFLTISGLQSEDEADYYCASYRNSNNWVFGGGTHLTVL
notes: Fab with human CH1 (including part of the hinge region) and human lambda constant domain; also called 10B02 hFab
B3: 2B11 scFv-human Fc (Fc fusion)
scFv: QVQLQESGPGLVKPSQTLSLTCTVSGGSITTNYYYWSWIRQPPGKGLEWMGAIAYSGSTYYSPSLKSRTSISRDTSKNQFTLQLSSVTPEDTAVYYCARAPYGISREYDYWGQGTQVTVSSGGGGSGGGGSGGGGSHSAVTQPSAVSVSLGQTARITCQGGKFGRYYASWYQQKPGQAPVLVIYKDSERPSGIPERFSGSSSGDTATLSISGAQAEDEADYFCQSGRSSDNAVFGGGTHLTVL
notes: about 100 kDa on SDS-PAGE; also called 2B11 ScFv-hFc; not shown: CH2-CH3 constant domains of human IgG1 (vector pUPEX50)
B4: 10D02 Fab (Fab, V domains shown)
VH: EVQLVESGGGLVQPGGSLRVSCAASGFTFSSYYMSWVRQAPGKGLEWVSGIVTGGGRTHYTDSVKGRFTITRDNAKNTLYLQMNSLRPEDTALYYCARVNGVVTNYDYWGQGTQVTVSS
VL: B2 VL with S2A, A3V, E52D, F74S, Y89F, N95S, S96P, W99V, G103Q
notes: Fab with human CH1 (including part of the hinge region) and human lambda constant domain; also called 10D2; 10D02 hFab
B5: 2C07 scFv-human Fc (Fc fusion)
scFv: ELQLVESGGGLVQPGGSLRLSCAASGFTFSSYAMSWVRQAPGKGLEWVSNINSGGGSTGYADSVKGRFTISRDNAKNTLYLQMNSLKPEDMAVYYCAKYLRTYYPNAAFGMDYWGKGTLVTVSSGGGGSGGGGSGGGGSQAVLTQPSAVSVSLGQTARITCQGGNFGRYYASWYQQKPGQAPVLVIYRDSERPSGIPERFSGSSSGDTATLTISGAQAEDEADYYCQSGRSSDNAVFGGGTHLTGL
notes: about 100 kDa on SDS-PAGE; also called 2C07 ScFv-hFc; not shown: CH2-CH3 constant domains of human IgG1 (vector pUPEX50)
B6: 6F05 scFv-human Fc (Fc fusion)
scFv: QLQLVESGGGLVQPGGSLRLSCAASGFTFSSYAMSWVRQAPGKGLEWVSAINSGGGSTSYADSVKGRFTISRDNAKNTLYLQMNSLKPEDTAVYYCATPGDRLWYYRYDYWGQGTQVTVSSGGGGSGGGGSGGGGSQAGLTQPPSVSGTLGKAVTISCAGTSSDIGYGNYVSWYQQLPGTAPKLLIYKVSRRASGVPDRFSGSKSGNTASLSISGLQSEDEADYYCASYRYRNNVVFGGGTHLTVL
notes: Positive control from the first panel; also called 6F5; not shown: CH2-CH3 constant domains of human IgG1 (pUPEX50 scFv-Fc fusion vector)

Legend:
[1] = biological target: T1, recombinant human galectin-10, …; assay: cell-based or functional assay
human galectin-10-His [2] = biological target: T2, human galectin-10-His; assay: ELISA, galectin-10-His coated at 1 ug/mL, Fab
Procedure: The binding capacity of the lead anti-galectin-10 Fabs was tested by binding ELISA. Briefly, a Maxisorp plate was coated overnight with 1 μg/mL of human galectin-10-His. Then a serial dilution of each clone (from 4 μM, dilution 1/4, 12 points of dilutions) was incubated on coated galectin-10. After several washing steps, detection of the bound Fab was carried out with an anti-human IgG Fab specific-peroxidase. Absorbance was measured at 450 nm (reference at 620 nm) with Tecan instrument.

[3] = biological target: T3, human galectin-10-His (recombinant …); assay: ELISA, scFv-hFc on coated galectin-10-His (0.2 ug/mL)
Procedure: In a similar setup to that used during the initial screening, the relative binding properties of the 12 scFv-human Fc clones were analyzed by ELISA. Briefly, a Maxisorp plate was coated with galectin-10-His at 0.2 μg/mL and blocked with casein, before being incubated with a serial dilution of the scFv-human Fc fusion molecules. After several washing steps, detection of the bound scFv-human Fc was carried out with an anti-human Fc-HRP antibody. Absorbance was measured at 450 nm (reference at 620 nm) with Tecan instrument. Finally, the raw data (OD values) were plotted on GraphPad Prism 7.01. The EC50 value of each compound was calculated with a non-linear regression (log(agonist) vs. response Variable slope (four parameters)).

[4] = biological target: T3, human galectin-10-His (recombinant …); assay: SPR Biacore T3000, scFv-hFc captured by anti-human Fc, galectin-10-His as analyte
Procedure: In order to determine the binding properties (on-rate/off-rate) of the scFv-human Fc panel, their binding capacity to galectin-10 was analyzed on Biacore T3000. For this purpose, a capture approach was set up. A CM5 Chip was coated with polyclonal anti-human Fc at 8000 RU, then a fixed concentration of the scFv-human Fc panel (1.5 μg/mL), diluted in HBS-EP pH7.4, were captured to reach a binding signal around 150 RU. Finally, a serial dilution of galectin-10-His (serial dilution, 1 over 2 from 5 μg/mL, 6 points of dilution) diluted in HBS-EP pH7.4 was injected. Raw data were analyzed via BIA evaluation software with a blank subtraction (4-3). The kd/KD and Rmax of each scFv-human Fc for galectin-10-His was determined using the Fit Kinetics simultaneous ka/kd/Binding with mass transfer/Local Rmax on BIA evaluation software.

[5] = biological target: T4, TEV-cleaved wild-type recombinant human …; assay: cell-based or functional assay
human galectin-10-His [6] = biological target: T2, human galectin-10-His; assay: ELISA, coated antigen 0.2 ug/mL
Procedure: In a similar setup to that used during the initial screening, the relative binding properties of the 11 new scFv-human Fc clones were analyzed by ELISA. Briefly, a Maxisorp plate was coated overnight with human or cynomolgus WGS or YRT isoforms of galectin-10-His at 0.2 μg/mL and blocked with PBS 1% casein, before being incubated with a serial dilution of the scFv-human Fc fusion molecules (from 100 nM, dilution 1/5, 8 points of dilutions). After several washing steps, detection of the bound scFv-human Fc was carried out with an anti-human Fc-HRP antibody (Jackson ImmunoResearch, Catalog 109-035-008). Absorbance was measured at 450 nm (reference at 620 nm) with Tecan instrument. Finally, the raw data (OD values) were plotted on GraphPad Prism 7.01. The EC50 values of each clone, calculated with a non-linear regression (log(agonist) vs. response Variable slope (four parameters)) are reported in Table 19 below. As a positive control, clone 6F05 from the previous galectin-10 antibody panel was included.

50% crystal dissolution (min), 50 uM [1] [min] | 90% crystal dissolution (min), 50 uM [1] [min] | Bmax (human galectin-10-His [2]) [OD] | EC50 (human galectin-10-His [2]) [nM] | Bmax (OD values) [3] [OD] | EC50 [3] [nM] | Kd [4] [nM] | koff [4] [s⁻¹] | 100% Solubilization of CLC (Conc uM) [5] [µM] | Bmax (human galectin-10-His [6]) [OD] | EC50 (human galectin-10-His [6]) [nM] | Binder
49.1 | > 120 | 0.36 | 89.5 | – | – | – | – | – | – | – | B1
102 | > 120 | 0.74 | 61.2 | – | – | – | – | – | – | – | B2
– | – | – | – | 2.43 | 0.08 | 0.875 | 0.018 | 5.04 | – | – | B3
59.7 | > 120 | 1.03 | 16.1 | – | – | – | – | – | – | – | B4
– | – | – | – | 2.89 | 0.05 | 0.677 | 0.000259 | 6.86 | – | – | B5
– | – | – | – | – | – | – | – | – | 2.4 | 0.02 | B6
